Results published in publication PMC2965233.

T1: ADF-1 (D. funebris) (Drosophila funebris, UniProt E2DD98 1-262)
T1 sequence: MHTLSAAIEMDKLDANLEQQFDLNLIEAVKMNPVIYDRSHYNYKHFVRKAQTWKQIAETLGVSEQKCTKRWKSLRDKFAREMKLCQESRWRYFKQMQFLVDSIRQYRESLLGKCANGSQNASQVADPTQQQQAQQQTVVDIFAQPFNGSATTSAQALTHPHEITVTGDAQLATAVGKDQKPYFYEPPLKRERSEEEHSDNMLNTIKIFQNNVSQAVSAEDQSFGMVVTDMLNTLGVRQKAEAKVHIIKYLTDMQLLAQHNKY

T2: ADF-1 (D. melanogaster) (Drosophila melanogaster, UniProt P05552 1-262)
T2 sequence: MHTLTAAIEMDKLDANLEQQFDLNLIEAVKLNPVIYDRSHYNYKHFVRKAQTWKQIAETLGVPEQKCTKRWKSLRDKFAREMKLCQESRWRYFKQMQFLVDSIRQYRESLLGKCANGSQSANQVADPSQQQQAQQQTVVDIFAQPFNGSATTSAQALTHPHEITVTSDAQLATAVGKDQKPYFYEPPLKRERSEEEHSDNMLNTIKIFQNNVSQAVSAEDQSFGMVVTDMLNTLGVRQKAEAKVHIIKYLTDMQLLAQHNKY

B1: Oligo 1 (dsDNA)
DNA 1: ATCGACGTCGGCGTCGACATCGTGA
DNA 2: TCACGATGTCGACGCCGACGTCGAT
B2: Oligo 2 (dsDNA)
DNA 1: ATCGACGTCAACGGCAGCGTTCACAT
DNA 2: ATGTGAACGCTGCCGTTGACGTCGAT
B3: Oligo 3 (dsDNA)
DNA 1: TCAATGTCGCCGTCGCTGTCTCAGTCG
DNA 2: CGACTGAGACAGCGACGGCGACATTGA
B4: Oligo 4 (dsDNA)
DNA 1: TCGCTGTCTCAGTCGACGCTATTGAT
DNA 2: ATCAATAGCGTCGACTGAGACAGCGA

Experiments:
ADF-1 (D. funebris) = biological target: T1, ADF-1 (D. funebris); assay: EMSA
ADF-1 (D. melanogaster) = biological target: T2, ADF-1 (D. melanogaster); assay: EMSA

Binder | Kd (ADF-1 (D. funebris)) [µM] | Kd (ADF-1 (D. melanogaster)) [µM]
B1 | 1.95 | 1.98
B2 | 5.05 | 4.07
B3 | 28.3 | 27.5
B4 | 1.86 | 1.63
